Data reported in patent US20050202440A1.

What follows are binders tested against androgen receptor ligand binding domain (AR LBD) bound with DHT (chimp construct; LBD sequence stated identical to human) (assay: X-ray cocrystal structure; surface area buried from both molecules on binding).
androgen receptor ligand binding domain (AR LBD) bound with DHT (chimp construct; LBD sequence stated identical to human), sequence (P10275 whole entry, the tested form may be a part): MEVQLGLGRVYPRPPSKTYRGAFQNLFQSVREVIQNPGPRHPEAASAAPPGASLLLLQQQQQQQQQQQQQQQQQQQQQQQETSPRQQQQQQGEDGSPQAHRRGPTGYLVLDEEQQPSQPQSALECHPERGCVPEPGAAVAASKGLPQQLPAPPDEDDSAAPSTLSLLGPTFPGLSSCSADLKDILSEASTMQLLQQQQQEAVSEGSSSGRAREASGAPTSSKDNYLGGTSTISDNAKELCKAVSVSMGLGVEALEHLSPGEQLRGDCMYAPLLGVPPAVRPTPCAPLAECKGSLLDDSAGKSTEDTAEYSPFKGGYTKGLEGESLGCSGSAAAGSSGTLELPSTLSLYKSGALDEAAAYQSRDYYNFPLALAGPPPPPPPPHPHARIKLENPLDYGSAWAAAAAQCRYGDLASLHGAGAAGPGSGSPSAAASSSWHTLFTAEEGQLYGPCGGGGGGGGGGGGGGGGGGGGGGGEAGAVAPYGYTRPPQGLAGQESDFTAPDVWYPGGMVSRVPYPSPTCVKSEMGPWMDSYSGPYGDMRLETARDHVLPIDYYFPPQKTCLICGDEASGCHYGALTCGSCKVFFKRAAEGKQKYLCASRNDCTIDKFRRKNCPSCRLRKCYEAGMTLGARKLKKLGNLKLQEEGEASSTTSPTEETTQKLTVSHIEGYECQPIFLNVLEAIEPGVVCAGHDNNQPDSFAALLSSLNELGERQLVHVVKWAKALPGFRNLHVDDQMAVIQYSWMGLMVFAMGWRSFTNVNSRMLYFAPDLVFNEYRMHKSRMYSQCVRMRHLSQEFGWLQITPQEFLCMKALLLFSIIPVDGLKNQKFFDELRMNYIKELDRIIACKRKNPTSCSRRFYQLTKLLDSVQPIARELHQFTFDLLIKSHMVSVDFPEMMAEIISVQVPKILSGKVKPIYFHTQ

Binder	buried surface area
SSNTPRFKEYFMQSR [coactivator-related peptide CRP-6]	1230 Å^2
SSRGLLWDLLTKDSR [coactivator-related peptide CRP-1]	987 A^2
SRFADFFRNEGLSGSR [coactivator-related peptide CRP-5]	920 Å^2
SRWQALFDDGTDTSR [coactivator-related peptide CRP-2]	963 Å^2
SSKFAALWDPPKLSR [coactivator-related peptide CRP-4]	930 Å^2

Results, then the binder that gave them:

buried surface area	Binder
1020 A^2	SSRFESLFAGEKESR [coactivator-related peptide CRP-3]
882 Å^2	SRWAEVWDDNSKVSR [coactivator-related peptide CRP-7]
